How the values were obtained:
[1] = molecular target: McjD-C547 (cys-less McjD with the native cysteine C547 only), labelled with Alexa555 and Alexa647 (Escherichia coli) (UniProt Q9X2W0); test: FRET or BRET; single-molecule FRET, confocal scanning, 10 ms time resolution; labelled McjD reconstituted in biotin-DOPE proteoliposomes (protein to lipid ~1:1,000 w/w) immobilised through neutravidin on PEG-biotin coverslips; oxygen-free buffer with Trolox; FRET between the single cysteines of the two protomers
[2] = molecular target: McjD Y64C (single cysteine in cys-less McjD), labelled with Alexa555 and Alexa647 (Escherichia coli) (UniProt Q9X2W0)
[3] = molecular target: McjD L67C (single cysteine in cys-less McjD), labelled with Alexa555 and Alexa647 (Escherichia coli) (UniProt Q9X2W0)

Molecule “McjD-C547 (cys-less McjD with the native cysteine C547 only), labelled with Alexa555 and Alexa647 (from UniProt Q9X2W0 1-580) (natural protein)” has a lifetime of the dimerized ATP-free NBD state [1] of 82 ms.

GGAGHVPEYFVGIGTPISFYG [antibacterial peptide MccJ25] was tested, and the mean apparent FRET efficiency E* between the dyes at Y64C of the two protomers (opening of the TMD), proteoliposomes, with 10 mM ATP and 200 uM MccJ25, first population (apo 0.81 & 0.60) [2] was 0.82, the mean apparent FRET efficiency E* between the dyes at Y64C of the two protomers (opening of the TMD), proteoliposomes, with 10 mM ATP and 200 uM MccJ25, second population (apo 0.81 & 0.60) [2] was 0.52 and the mean apparent FRET efficiency E* between the dyes at Y64C of the two protomers (opening of the periplasmic gate of the TMD), detergent, with ATP + MccJ25 (apo 1.07; ATP alone 1.01) [2] was 0.91. The mean apparent FRET efficiency E* between the dyes at L67C of the two protomers (opening of the TMD), proteoliposomes, with 10 mM ATP and 200 uM MccJ25 (apo 0.69) [3] was 0.51 and the mean apparent FRET efficiency E* between the dyes at L67C of the two protomers (opening of the periplasmic gate of the TMD), detergent, with ATP + MccJ25 (apo 0.95; ATP alone 0.95) [3] was 0.83.
